Results from article PMC10505919.

Target: Chlamydomonas reinhardtii RabL2, wild type (Chlamydomonas reinhardtii)
Assay: ITC

## Chlamydomonas reinhardtii CEP19 residues 1-208 (domain or fragment)
  Kd: 12.7 µM
